Data as given in article PMC4605646 (PLoS ONE, 2015).

Target: human α-synuclein (human, UniProt P37840 1-140)
Assay: cell-based or functional assay

lag phase of α-synuclein amyloid formation (ThT fluorescence, 70 μM α-synuclein, 37°C, agitation) at CsgE-to-α-synuclein molar ratios of 1-to-3, 1-to-10 and 1-to-100: 4 fold
B1: CsgE (natural protein)
chain: VEVEVPGLLTDHTVSSIGHDFYRAFSDKWESDYTGNLTINERPSARWGSWITITVNQDVIFQTFLFPLKRDFEKTVVFALIQTEEALNRRQINQALLSTGDLAHDEF
